Measured values published in paper doi:10.1101/2021.01.06.425396.

Biological target: T1, tetherin (Bst2), endogenous (human (endogenous in HeLa)), Q10589
T1 chain: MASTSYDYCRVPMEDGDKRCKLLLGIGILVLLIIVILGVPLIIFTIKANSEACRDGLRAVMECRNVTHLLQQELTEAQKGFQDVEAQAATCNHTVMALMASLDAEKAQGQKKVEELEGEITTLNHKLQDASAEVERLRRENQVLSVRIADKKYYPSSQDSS
Assay: non-reducing SDS-PAGE and Western blot
Settings: remark: other sources report otherwise

B1: tetherin (Bst2), endogenous, Q10589 1-161 (natural protein)
chain: MASTSYDYCRVPMEDGDKRCKLLLGIGILVLLIIVILGVPLIIFTIKANSEACRDGLRAVMECRNVTHLLQQELTEAQKGFQDVEAQAATCNHTVMALMASLDAEKAQGQKKVEELEGEITTLNHKLQDASAEVERLRRENQVLSVRIADKKYYPSSQDSS
For B1, the stoichiometry N was 2.
